Assay results: US10858688B2, “Observation method using binding and dissociation probe” (KYOTO UNIVERSITY, priority 2015, dated 2020)

B1: Paxillin 167-557: EGFP fused (N terminus) human Paxillin fragment, residues 167-557 of sequence number 15 (protein, UniProt P49023 167-557, looked up, fragment)
chain: ANSSPPLPGALSPLYGVPETNSPLGGKAGPLTKEKPKRNGGRGLEDVRPSVESLLDELESSVPSPVPAITVNQGEMSSPQRVTSTQQQTRISASSATRELDELMASLSDFKIQGLEQRADGERCWAAGWPRDGGRSSPGGQDEGGFMAQGKTGSSSPPGGPPKPGSQLDSMLGSLQSDLNKLGVATVAKGVCGACKKPIAGQVVTAMGKTWHPEHFVCTHCQEEIGSRNFFERDGQPYCEKDYHNLFSPRCYYCNGPILDKVVTALDRTWHPEHFFCAQCGAFFGPEGFHEKDGKAYCRKDYFDMFAPKCGGCARAILENYISALNTLWHPECFVCRECFTPFVNGSFFEHDGQPYCEVHYHERRGSLCSGCQKPITGRCITAMAKKFHPE
modifications: N-terminal EGFP fusion
B2: Paxillin 54-498: EGFP fused (N terminus) human Paxillin fragment, residues 54-498 of sequence number 15 (protein, UniProt P49023 54-498, looked up, fragment)
chain: SSEALNGTILDPLDQWQPSSSRFIHQQPQSSSPVYGSSAKTSSVSNPQDSVGSPCSRVGEEEHVYSFPNKQKSAEPSPTVMSTSLGSNLSELDRLLLELNAVQHNPPGFPADEANSSPPLPGALSPLYGVPETNSPLGGKAGPLTKEKPKRNGGRGLEDVRPSVESLLDELESSVPSPVPAITVNQGEMSSPQRVTSTQQQTRISASSATRELDELMASLSDFKIQGLEQRADGERCWAAGWPRDGGRSSPGGQDEGGFMAQGKTGSSSPPGGPPKPGSQLDSMLGSLQSDLNKLGVATVAKGVCGACKKPIAGQVVTAMGKTWHPEHFVCTHCQEEIGSRNFFERDGQPYCEKDYHNLFSPRCYYCNGPILDKVVTALDRTWHPEHFFCAQCGAFFGPEGFHEKDGKAYCRKDYFDMFAPKCGGCARAILENYISALNTLWHPE
modifications: N-terminal EGFP fusion
B3: MAP4 659-908: EGFP fused (N terminus) mouse MAP4 fragment, amino acid residues 659-908 of sequence number 4 (protein, UniProt P27546 659-908, looked up, fragment)
chain: PPNKEPPPSPEKKAKPLATTQPAKTSTSKAKTQPTSLPKQPAPTTSGGLNKKPMSLASGSVPAAPHKRPAAATATARPSTLPARDVKPKPITEAKVAEKRTSPSKPSSAPALKPGPKTTPTVSKATSPSTLVSTGPSSRSPATTLPKRPTSIKTEGKPADVKRMTAKSASADLSRSKTTSASSVKRNTTPTGAAPPAGMTSTRVKPMSAPSRSSGALSVDKKPTSTKPSSSAPRVSRLATTVSAPDLKSV
modifications: N-terminal EGFP fusion

Tests used:
focal adhesion [1] = experiment: Washability test of probe candidates; format: cell-based, Xenopus laevis; design: key: “washability” is positive (P) when above criterion (2) is met; details: speckles equal to or less than about 10% after switching imaging solution 10 to 20 times
Experimental: (§1) (2) It is possible to wash and remove a probe after SiMS imaging (imaging step);
(§2) The […] of the above (2), whose result is shown in table 1, was performed in the following procedures. […] This switching of imaging solution was conducted slowly so that the observation position would not shift. Next, an imaging solution not containing a probe and not containing the active oxygen-scavenging mix was switched 10 to 20 times. After the switching, for confirmation, for an XCT cell sample in the observation chamber, speckle images of 10 frames were picked up under a similar condition to that of the localization test described in the previous paragraph, and when the number of speckles confirmed in the speckle images (i.e., the number of probes that had bound) became sufficiently smaller (equal to or less than about 10%) than the number of the speckles in the speckle images before the washing operation, washing was determined to be possible and the result was treated as P (positive).

focal adhesion [2] = experiment: Localization test of probe candidates (integrated SiMS images); format: cell-based, Xenopus laevis; design: key: “localization” is positive (P) when above criterion (1) is met; details: fixed, permeabilized XTC cell; lysate supernatant of EGFP fused probe; TIRF, 10000 frames
Experimental: (§3) HEK (Human embryonic kidney)-293F cells were transfected with a plasmid encoding a probe candidate protein tagged with FLAG-EGFP or 3×FLAG-EGFP. […] Centrifugal separation was performed on the lysate and the supernatant liquid was collected. In order to perform screening for a probe for IRIS, the binding capacity of a probe candidate in the supernatant liquid with respect to the structure of an XCT cell that was fixed with paraformaldehyde (PFA) and that received a permeabilization process was tested. The appearance and disappearance of single molecule speckles (Single-molecule speckles, SiMS) in the structure was tested. Screening was performed for a probe for IRIS in accordance with the following criteria:
(§4) (1) It is possible to confirm a distribution of target substances in the structure in an image resulting from adding SiMS images;
(§5) The localization test of the above (1), whose result is shown in table 1, was performed in the following procedures. First, the supernatant liquid of lysate of a cell that expressed each probe candidate was brought into contact with an XCT cell that was fixed on a coverglass and that received a permeabilization process. […] The obtained speckle images of 10000 frames were integrated so as to confirm whether or not a distribution of target substances in the cell (microtubule, intermediate filament, focal adhesion or actin filament) was able to be confirmed. When a distribution of a target substances was able to be confirmed, the result of the localization test was treated as P (positive).

focal adhesion [3] = experiment: Measurement of binding half-life of probe-target complex; design: species or system Xenopus laevis; details: fixed XTC cell, single exponential fit
Text: (§6) A probe and a target substance have the following binding characteristics. […] The above half-life herein is preferably a half-life of a probe-target complex formed by binding between a probe and a target substance in a case when a medium containing a probe and a sample containing a target substance that is to be observed are brought into contact under a condition for performing an imaging step. […] Measurement procedures for the half-life are as below. […] Ndissociation is a cumulative relative frequency of a probe that dissociated. A cumulative relative frequency is a ratio of the speckles that disappeared within a given period of time to the total number of measured speckles (i.e. probes) (i.e. probes that dissociated within a given period of time), and represents the total number as 1. Then, by fitting the above complementary cumulative relative frequency function with an exponent function, that half-life is calculated.
The measurement of binding half-life, whose result is shown in table 1, was performed in the following procedures. […] Then, by fitting the complementary cumulative relative frequency function with an exponent function, the half-life was calculated. However, the binding half-life with respect to an actin filament of Atto488-Lifeact was measured by using a method that is described in detail in the section for FIG. 9 in the Brief Description of the Drawings.

focal adhesion [4] = experiment: IRIS image test (reconstruction image); format: cell-based, Xenopus laevis; design: key: “IRIS image” is positive (P) when above criterion (3) is met; details: reconstruction from 10000 frames with DAOSTORM
Experimental: (§7) […] It is possible to reconstruct an image of a target substance by integrating the central positions of the respective speckles. The IRIS image test of the above (3) whose result is described in table 1 was performed in the following procedures. By using all the speckle images of 10000 frames picked up in the localization test, the central point of a probe that has bound to a target in each frame of the speckle images was determined with nanometer accuracy by using DAOSTORM. By adding a large number of pieces of central point information in the fluorescence images of 10000 frames, a reconstruction image (observation image) was generated. Whether or not a distribution of a target molecule was able to be observed in that reconstruction image was determined, and when a distribution of a target molecule was observed, the result was treated as P (positive).

microtubule [5] = experiment: Washability test of probe candidates; format: cell-based, Xenopus laevis; design: key: “washability” is positive (P) when above criterion (2) is met; details: speckles equal to or less than about 10% after switching imaging solution 10 to 20 times
Experimental: as §1, §2

microtubule [6] = experiment: Localization test of probe candidates (integrated SiMS images); format: cell-based, Xenopus laevis; design: key: “localization” is positive (P) when above criterion (1) is met; details: fixed, permeabilized XTC cell; lysate supernatant of EGFP fused probe; TIRF, 10000 frames
Experimental: as §3, §4, §5

microtubule [7] = experiment: Measurement of binding half-life of probe-target complex; design: species or system Xenopus laevis; details: fixed XTC cell, single exponential fit
Text: as §6
The measurement of binding half-life, whose result is shown in table 1, was performed in the following procedures. Speckle images of 10000 frames picked up in the localization test were used in order to measure a period of time between the appearance of a probe that has bound to a target in a speckle image and disappearance through dissociation in a semi-manual mode by using Speckle TrackerJ, an ImageJ plug-in. In case of for example picking up of images with an exposure time of 50 ms and at a frame rate of 20 Hz, it is assumed that a period of time between the appearance and disappearance of a speckle that is observed in only one of consecutive frames is 50 ms and a period of time between the appearance and disappearance of a speckle observed in only two consecutive frames is 100 ms. […] Ndissociation is a cumulative relative frequency of probes that dissociated. Then, by fitting the complementary cumulative relative frequency function with an exponent function, the half-life was calculated. However, the binding half-life with respect to an actin filament of Atto488-Lifeact was measured by using a method that is described in detail in the section for FIG. 9 in the Brief Description of the Drawings.

microtubule [8] = experiment: IRIS image test (reconstruction image); format: cell-based, Xenopus laevis; design: key: “IRIS image” is positive (P) when above criterion (3) is met; details: reconstruction from 10000 frames with DAOSTORM
Experimental: as §7

| Molecule | WASHABILITY (focal adhesion [1]) | LOCALIZATION (focal adhesion [2]) | HALF-LIFE (focal adhesion [3]) | IRIS IMAGE (focal adhesion [4]) | WASHABILITY (microtubule [5]) | LOCALIZATION (microtubule [6]) | HALF-LIFE (microtubule [7]) | IRIS IMAGE (microtubule [8]) |
| --- | --- | --- | --- | --- | --- | --- | --- | --- |
| B1 | P | P | 138 ms | P |  |  |  |  |
| B2 | P | P | 91 ms | P |  |  |  |  |
| B3 |  |  |  |  | P | P | 106 ms | P |
